This is an account of results in the DeepSol protein solubility set.

The data set in a line: soluble on expression in E. coli; label from the status in PepcDB or PDB records.
“MGSDKIHHHHHHMSNIYDAVVVGSGPNGLAAAITLQRKGFAVLVLEAKDTIGGGLRTKELTLPGFKHDVCSAIHPMAVASPFFADIPLDKFGLRFTHAPIAAAHPFDHGGAAILSRSLKDTIALLGKDADNYKRLIEPVIESWPDIAADAMGPLRFPKHPLKMAAFGLNAIRSADCISKRFETEEAKGLWAGMAAHSIQPLTNWASAAIGLVLSAVGHLHGWPIPIGGSQAIADALGSYFISLGGTIQTNVEVTSLNQLPAARAVLFDVTPKQLLKITGDEFSGLYKKQLTNYRYGMGVFKVDWALSEPVPFTSDHCRQAGTVHLGNTFNEIALSEQETSSGKHPEKPFVLFAQQSKFDITRAPQGKHTAWAYCHVPNGSATDMTAAIENQLERFAPGFKDTILAKNTMNTVEIQAYNPNYIGGDINGGIIDIRQLYTRPAVKISPYRTPKKGIYICSSSTPPGGGVHGMCGFHAAQAVIQDLKKQYK”: the “soluble on expression in E. coli” value is recorded as “not soluble”. To “MDGEEKTYGGCEGPDAMYVKLISSDGHEFIVKREHALTSGTIKAMLSGPGQFAENETNEVNFREIPSHVLSKVCMYFTYKVRYTNSSTEIPEFPIAPEIALELLMAANFLDC” belongs “soluble”.

Turning to “MAHHHHHHMNIFKNIYNTEMMSNNNTVDVNMMDNNPAARLEELRTIMKKNKIDVYILINSDEHNSEIINEKDKKIVKITNYSGADGILIVTKDKPILYVNALYELQAMNELDQNLFTLRISRIDNRDEIFETISSLEFNTIAFDGKNTSVVFYEKLRKALLNAYPKKKIVEKIIYNNNFDDVNKKDDENVLNFLVLEKSLVEIKDYPVNNKTLYIHDRKYNGACAGEKIDKLKQSLMYDIKNVDNLLLSELDEIAYLLNLRGYDYQYSPLFYSYLLFQFDREEQDFSKIVFFTTVKNLPADVKNLLEINKVIVKEYEEIVPYLRDVVIPSIPKHNDDNPDFKKYDISLSPYINLMIYKLFDRKNVLLQNSPVVKMKAVKNDVEIDNMKQAHILDGLALLQFFHWCEQKRKTKELFNETEMSLRHKVDYFRSTKKNFIFPSFSTISASGPNAAVIHYECTDKTNATIKPAIYLLDSGGQYLHGTTDVTRTTHFGEPTAEEKRIYTLVLKGHLRLRKVIFASYTNSSALDFIARENLFNNFMDYNHGTGHGVGLTLNVHEGGCSIGPVGGAPLKKNMVLSNEPGYYMKDKFGVRIENMQYVISKEITDTTEYLSFDDLTMYPYEKKLLDFSLLTNQEIKELNEYHTTIRNTLLPLVKQSPQEYGESVEKYLIEITEPIAIHNN”, the “soluble on expression in E. coli” value is given as “soluble”.

Consider “MGSDKIHHHHHHMRGVLTMIRLFKAIPELELPVYSGEDSPVDGTEKTTGFLISNHVPGEQVEETLLVASAEIKTSQTGREWLQFTFNSPSGSCKGKQWLNQGTAEEAMRPYLETGIVHVSAKVDEYPVDSGNKSLTVQTVKAVHDQSGTAYLPQMPAGESAKDYRDQLIGLIEKMETPLRQVAHRVVSAYWDDFSTRPAALYHHHAYIGGLLKHTACMMTIGFGICQSERPDLTLLQCIQEAEADHKNDLFQAGERDMRQFAWDDSFDALYQSARSIALLNERPHQDELLLGILLHDIGKIFEYTHLGASGDRFSRLVQTEPASEKLSGIALDPNGVLIGHMPYGCFVLEQALQTEAVRLPVDQYHRLMHMILSHHGKKEWGSSVTPQTTDAWYLHAIDLLDARKEKWRQSQLT”, for which the “soluble on expression in E. coli” value is reported as “not soluble”. The same measure for “MKKFFRFQLCCICLLVLIVSACKVKRPDSVISESEMENLLYDYHIAKAMGENMPGGENYKKALYVEAVFKKYGTTEEVFDSSMVWYTRNTKILSEIYEKVNKRLKAQQNAINHLIALRDNKPKMSAPGDSINVWAWQRIAQLTEAPLNNKFTFTLPSDTNFKKRDVLLWKMQYNFLSEIPDSTMAPIMAMQIVYENDTVTHSCVKHIFKSGIQNIRLQSDTMNIKEIKGFIFCPLSEESITLLVSDISLTRYHANDSITQISKDSLKTDSIKEKSKNDSIQKKTPKDTIQASSSHQRTNPNDLNRPNNDVRPIKPEQREKEMQIEKEKQQLERQQRTNPRRPLRRQNN”: “not soluble”; for “MTSVTSSATSSPEPPTKVAAAMQTTTGETSISNETSFNASRETSLTALGFLDYLDEEQRAALLGEGLDISTLTWANQVTALRVLESLFNEHAYELVSAVIQHVAQEPGDNPHHFLKFSPEPSTENSWELTLDGPTVGLKVTFDPDGQITFKDAHLGLSPAEVVSVTEALDTSYSESQIKKAAEQLVGSLNPTQQAALQGSGLRGAQLTEEQKTLFLKMTSNWIDLANGDSGSEQQEEIADTFSDTYIIWNEQKDGSAFFQMKGPELDFSYKESVPENAELSARGVPNIQTSFQSPLEHHHHHH”: “soluble”. Consider “NETEATLPVFTLEQVAEHHSPDDCWMAIHGKVYDLTPYVPNHPGPAGMMLVWCGQESTEAWETKSYGEPHSSLAARLLQRYLIGTLEEIT”, for which the “soluble on expression in E. coli” value is “soluble”. Take “MGSDKIHHHHHHMELLECVEHVIKTRRSHRLYLDKPVEREKLEKMIELAMWAPSAMNRQQWFFVVVAGKRLKEMIGIVEKGYEHILPRLQRFFAETPKVIEQTRRFFKSLGNAPAAVFAYYTPTGDDYSDVQSVSAAIQNMLLAAHAMGLGTCWMTGPVHVEEEINKALGVEGKKLVAVITVGYPAKQPPVPPRRDSEKKVVWMLD”: the “soluble on expression in E. coli” value is listed as “not soluble”. “MKHLSPERLHVTQTAGITQLSPVNGRLYTLTHSDTTGALFLTVSRAFVTDQLTSQRDEVLGEWKQAGQQLVLFLYVFIGNRQMGRQENARRANVFKKELPLALEAIRYGDRAFFHTYPFCDWCPIFIHFTSEYPELNRTEYYGTPYLYR”: the “soluble on expression in E. coli” value was “not soluble”. “MIDRQTNEPKQKTRIILAPMQGLVDDVMRDLLTRIGGYDECVSEFVRITHTVHSRSIWLKYVPEIANGNKTFSGTPCTVQLLGSDADNMAANALEAVRFGANKIDLNFGCPAPTVNKHKGGAILLKEPELIFHIVKTLRGRLPAHIPLTAKMRLGYEDKSRALECACAIAEGGACGLTVHARTKAEGYEPPAHWEWIRKIRDSVNIPVTANGDVFSLQDYIGIKTISGCNSVMLGRGAVIRPDLARQIKQYENGGPVKDTDFAEVSKWIRQFFELCLTKEANNKYPLARLKQWLGMMKKEFAAAQNLFDRVRTVKDADEVRNILAEFEREMNT”: the “soluble on expression in E. coli” value is recorded as “not soluble”. Take “HHDITKVDTSGASEITARQDKLTLQGVDASHKLAEHDLVRMNKYKELITRVGQKHGLDPAIIAGIISRESRAGSALDHGWGDHGKGFGLMQVDKRYHKIVGAWDSEKHISQGTEILIEFIRRIQAKFPVWPKEHQLKGGISAYNAGDKNVRTYERMDVGTTGGDYSNDVVARSQWFKSQGY”: the “soluble on expression in E. coli” value was “soluble”. For “MGSDKIHHHHHHNRDPHEGERGLTVAIDNTQCPDVPIGAIKLYIYGTGGNLYATYNYADARGIASVLHPLEAGHYTVAVVINADEEAAETSTLTALHEWLEIEMSHETNLLSGIAEVNVTEDGISPVTVFLQRGVFTLSTLRLQLTLPAPKLPDYTPEKSKTRAAGTANTIRCVAELCKAGTDIVVLHKAVTPVPQADGTYLVELELAEGSYDLRLWTDYARADNPLADTFYHTESLKAVTIVTKPYTANTDAKDAAYYNKSDITLSKEGATMNVQLQRPLAKYRLIAKDVENYRKLMEAKPDIYPPLKNLTVKVLYEGYFPSGFNVSTGKPNDAVGGISYSQVSLHYNDVDNEVLLGGDWVLVNGTESLVNVTVTVTDNLGNTLCRASGVKINYRNSHLTTVYGNFLTAGINKGGIDINTEWSGIYNVWF”, the “soluble on expression in E. coli” value is “not soluble”.

Consider “VVNKKIAYLGDEKPITIWTSLDNVTVIQLEKDETISYITTGFNKGWSIVPNSNHIFIQPKSVKSNLMFEKEAVNFALMTRDYQEFLKTKKLIVDAPDPKELEEQKKALEKEKEAKEQAQKAQKDKREKRKEERAKNRANLENLTNAMSNPQNLSNNKNLSEFIKQQRENELDQMERLEDMQEQAQANALKQIEELNKKQAEETIKQRAKDKINIKTDKPQKSPEDNSIELSPSDSAWRTNLVVRTNKALYQFILRIAQKDNFASAYLTVKLEYPQRHEVSSVIEEELKKREEAKRQKELIKQENLNTTAYINRVMMASNEQIINKEKIREEKQKIILDQAKALETQYVHNALKRNPVPRNYNYYQAPEKRSKHIMPSEIFDDGTFTYFGFKNITLQPAIFVVQPDGKLSMTDAAIDPNMTNSGLRWYRVNEIAEKFKLIKDKALVTVINKG”, for which the “soluble on expression in E. coli” value is “not soluble”. Turning to “MTEKGRAIEEESFRIVDQEAGPHGFSPLEWPVVRRMIHATADFEYKALTRFSQGAVEAGLKAIQAGARILVDARMIACGLNPERLRLFGNEVVELLAHPEVVARAKATGGTRAEAAVAYAWEKGLLDGAIVGVGNAPTFLLALVEAIRQGARPALVLGMPVGFVNVLEAKRALMEAPVPWIVTEGRKGGSTLVVAALHALIRLAADGGVDTSRAYREG”, the “soluble on expression in E. coli” value is “soluble”.
